According to patent US5670316, “Diagnostic applications of double D-loop formation” (Daikin Industries, Ltd.):

Molecular target: RecA (UniProt P0A7G6 P0A7G6:2-353)
Test: EMSA; 2.4 mM ATPgammaS, 37 C 10 min; retardation increases over 0.137-13.7 uM RecA
Details: tags: wild-type, untagged; purified from overproducing strain JC12772 or purchased from Pharmacia; label: 32P 5'-end; both complementary strands, heat denatured
Method: RecA protein coating of probes was normally carried out in a standard 1× RecA coating reaction buffer (10× RecA reaction buffer: 100 mM Tris acetate (pH 7.5 at 37° C.), 20 mM magnesium acetate, 500 mM sodium acetate, 10 mM DTT and 50% glycerol (Cheng et al. 1988). All of the probes, whether double-stranded or single-stranded, were denatured before use by heating to 95°–100° C. for five minutes, placed on ice for one minute, and subjected in a Tomy centrifuge to centrifugation (10,000 rpm) at 0° C. for approximately 20 seconds. Denatured probes were added immediately to room temperature RecA coating reaction buffer mixed with ATPγS and diluent (double-distilled H_2O), as necessary.
Heat denatured ^32P-labeled double-stranded 121-mer and 159-mer DNA probes were reacted with RecA protein as described above. The final RecA-DNA reaction mixtures contained 2.4 mM ATPγS. RecA protein or RecA storage buffer was added to each of four reactions containing 0.01 μg of either denatured 121- or 159-mer DNA probe. The final concentration of RecA in each reaction was 0, 0.137, 1.37 or 13.7 μM in lanes 1 and 5, 2 and 6, 3 and 7 or 4 and 8, respectively (FIG. 3). All RecA/DNA probe coating reactions were performed in a final volume of 10 μl. RecA binding was initiated by incubating all the reactions at 37° C. for 10 min. […]

Chain of RecA (P0A7G6 2-353, one chain of several): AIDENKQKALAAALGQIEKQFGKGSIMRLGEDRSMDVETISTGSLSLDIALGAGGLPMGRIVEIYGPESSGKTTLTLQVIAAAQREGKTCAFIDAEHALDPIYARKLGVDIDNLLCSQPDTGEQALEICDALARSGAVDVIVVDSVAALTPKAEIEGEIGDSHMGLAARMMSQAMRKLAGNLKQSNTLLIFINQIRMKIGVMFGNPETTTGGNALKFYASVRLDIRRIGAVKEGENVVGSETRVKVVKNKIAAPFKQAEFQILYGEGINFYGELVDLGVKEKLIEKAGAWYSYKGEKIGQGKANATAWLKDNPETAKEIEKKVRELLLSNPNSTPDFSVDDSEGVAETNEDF

B1: lambda 159-mer probe (7472-7630), heat denatured (ssDNA)
DNA: CTGCATACTGATGCACTTCACGCCACGCGGGATGAACCTGTGGCATTTGTGCTGCCGGGAACGGCGTTTCGTGTCTCTGCCGGTGTGGCAGCCGAAATGACAGAGCGCGGCCTGGCCAGAATGCAATAACGGGAGGCGCTGTGGCTGATTTCGATAACC
binding result: binds
